Data as given in the DeepSol protein solubility set.

Test: soluble on expression in E. coli; label from the status in PepcDB or PDB records

Row | Sequence | soluble on expression in E. coli
1 | MGSDKIHHHHHHMRNILIALCLSLTALNSHAADQIERMAADKMQSYKESKINWKDDPILPKGAKSALILGDPSKPGVFIAWLKFPANYPIPAHTHPFTEVITVLKGKLGNGMGEVLDKKKGETLNVGESFVLPAGHAHYVWTGNEETIIELIATGPWDITYSNPKDDPRTK | not soluble
2 | MGSDKIHHHHHHMRNTAVAEQPASVPAMSRLTRQRLHDTVVEYLRDYIVKGVLAPGVKLNERELCETLGISRTPLREAIKVLAAEGLIEISANRGAAVTKLAESEIDEMFELMSGLEAFAGELACERITPHEIAEIKALHYAMVACREREDLSGYYGYNQQIHDRINGAARNCALRQTYLSINRRLQAMRFKSNFHKSKRDHAVHDHEEMIKALESRDGKRLSAILRQHLLDKRDVVLVTLATARETPATGGR | not soluble
3 | MGSDKIHHHHHHMRQLLTYDLMESMRVTNQWMGASARALCSYPQLGLAANPFIQLTAAWGEVAERSFARMAAKPDWGISSIPGADGRDHVISIEPVMERAFGDLIRFDVQGREPTGRKILLVAPMSGHYATLLRKTVLSLLPDADVYITDWHNARDIPVSAGKFDIEDYTHYLVDFMREMGPDTNVIAVCQPAPLALAATAYLAEEDPKAQPRTLTLIGGPIDPDAAATDVTDFGRRVTMGHLEKFVVQRVGFKYAGAGRMVYPGIQQLASFMAMNAETHAKAFSDQVVAVSKGEASDHDKHNVFYDEYLAVMDMTAEFYLSTVERIFKNREIAKNTFVVDGKPVDIGKITSVAVKTVEGGKDDISAPGQCVAALDMLTGLPEEKKANYIEPDAGHYGIFAGKSWRNNIRPLVLEFIDANSGIKTPAKRAKPKLVEDPPVENVAV | not soluble
4 | MGSDKIHHHHHHMRQVLQKDKRDVQLSKALSYLLRHTAVKEKLTIDSNGYTPLKELLSHNRLKTHKCTVDDIHRIVKENDKQRFHIKTLGADEEWICATQGHSIKSIQPSDEVLVPITEASQLPQELIHGTNLQSVIKIIESGAISPMSRNHVHLSPGMLHAKGVISGMRSSSNVYIFIDCHSPLFFQTLKMFRSLNNVYLSSSIPVELIQKVVVKGNLKDEEKLDTLRRILHERNIPLEKI | not soluble
5 | MGSDKIHHHHHHMRRGELNERRDAIIRLLCAQDELSAQDLAARLNVSVQTIRTDLRELDEAALVQRRHGRVRLRQPSENIGYAPRMSVARSEKQQIAMAVKPMIEDGSRVALGTGTTVEACARQLAASHRDLFVATNNIHAVIALQGASGVSVSLAGGAVRLRDLDFVGAASRAFFADYMVDIAIFSCGGLSLSGDVLDYNTDEIAAREAISTCATRRVLVVDREKFGRALPCRKHMIWDYDVVVTGADFPREIMRKCQEAGCEVLRVATDERPLRA | not soluble
6 | MGSDKIHHHHHHMRRGGTAFSSKCKICGKAAPFSLPVCPECSKKDAALEIATSLHPPLYEKRVEGCNLCSNKCSGIALCGKPEYGKLTYYEDPLPTNCCNAWFCNGSKLTGTNLAVFYYGCNFDCLYCQNWTHKYFEDVRTVSVDELLRAAKNFRVRCVCHFGGSPEPQLPFALKFSRKALEFKEDLMICWEWNGAGNTSLALKAAELSSRSGGTVKFDLKAWNPNLHVLLTGRDNERVKDNFERIYDKHGEVLSATTLLVPYYVDEEEVEGIARFISSFSTEIPYSLLVFHPDYRMSDFPVTPVQQVKRCYKAAKKHLKNVNIGNLHLLGL | not soluble
7 | MGSDKIHHHHHHMRRKIPSSTTLMAFEVAARHGSFARAAEELSLTEGAISRQIGRLEAFLGVTLFERVGNRVRLLPNGERYAAQVRESLDRLDRDSQYLMGQPSDGASLDIATIPTFAMRWLIPRLSRFQQKHPNITVHLAERMDPFVLAGSGFDAAIHFEHPAWTGMRTHQLLHEVLVPVCHPELLTGRKRKTALDELPRLHRRQNPEAWLQYSQETGTPLTNPAIGARYDLHGMLIEAALAGLGVALVPRLYVETELALGNLVAPWPEGKTISKTFCLILPEPIGLSREPIQAFAQWLLDEAKKGNSG | not soluble
8 | MGSDKIHHHHHHMRRLNRKNNEALKKLNDRQRKVLYCIVREYIENKKPVSSQRVLEVSNIEFSSATIRNDMKKLEYLGYIYQPHTSAGRIPTDKGLRFYYEEMLKISKETSEADLAVETFKSMPLADPEKVLFLAGNLLARLTEGYVLIERPNTRDLKILRVMLIPVSEDYLIFSILTEFGVSKVTPIKTQERLNWEEIERQLNFLLRGRTVGEVLMGKIESLKGSGFLRLIESLIGETVERYLDAGLENLLKDETLTLEDIRNLLEEVKDQKFLESLVGEGITVRIGREIGRKKLEKFAVFSGKYFKGESPIGSVYLFTSKVTKYDRNHRVFEYILNRLSEYFTSTSRR | not soluble
9 | MGSDKIHHHHHHMRRLPHVTWLRSFEAAARHSSFSAAAEELHLTPAAVSQQIRQLEHHLGFQLFKRLPKGVELTDIGQAYAIPVRKSFVQMQEATDGLFRVQSKSVLRVRCSISFAALILAPLLRDFAEIHPDIDVELSTAVWSDRMEGAGVDLDIRYGAACWPEQNVHPLPVEEATLVCHPDYAAQLGSALDPAWLGAADIVQIVGSETDWDRYLRLCGIDTPRPRHWMKADSSLIALQILSAGRGCALISRSFARQALSEGRLVAPFDLSLPMQESFVLVERDDLRENPGLRKLVDWLLTQRL | not soluble
10 | MGSDKIHHHHHHMRRVNRPAPLSERQYEYMQRCINSWFNVAEGGKRGGKNVLQTLIFCSLLETHKNKIHLVAGVSSATAKLNILDCDGYGLLNYFEGRCREGKYKDRDCVYVQTKTGEKIVLVSGGGKDGDEKLIKGNTYGMAYVTEANECHQKFLKEVFDRTLSSTDRKIFHDLNPKEEEHWYYTEILKFHEEQQANDENYGYNYGHFTLVDNMSMSDEKIRTVLKTYQKGTVWYKRDIKGERAVAEGIIFRKFKENNIPYLCDDSILKYNKDGELFPRPSKVIIGMDFGGNGSMTTMVCSLYFRGYHFIYPVEEDYLELSPDIDANNICDKYIEFYRRCAAKYERIDWTFPDSASTTMINSLRSAAKKDGLRYDHIAGCRKNEISERPRTVDLLLNTGRMKVHKRCVNLRKAIGTLKWDEKHPNIPEDKNIGNCNDWWDALCYTMLDFIEYIDLDR | not soluble
11 | MGSDKIHHHHHHMRSLTNAEIAHNRLLNSGLLQSKFSSAEDATRALFGIQSQYQQFGEISLFNRVPNLTKENLQMAYDDKGIIKIWGQRMTIHMYTPDDWFYVHDVYANKNNWLRKHADSLGRDLDEILVQMEELLLREDKVSKESFAALLGNEAKELMTWGGVFIQGSLDGKLFCVPESPKTKFYSHRNQIDSEREDAWITNKRSKTGLETMIDRYFSAFGPATIQDFKHWSGLRNSDYIETLEKLLENYICYIGEDGKNYYSKAKTQENVEMGSPLLLGKFDPLFVSYAKKNWLASEKETSLIWRTAGQIEAVLIINAQFFGTWRYKISGDKIVFQFYLSKKLTKKGQKLVEKEAIKLAEFLLKNYQGSIFEQI | not soluble
12 | MGSDKIHHHHHHMRTKIGIYLSSEPESGGMFQYGLSILDAAASLPRDRYQTTVAFISERWNEHLKFRNLEHFQISPNFLWRIFKGKGWLLLNLPISFWRWILINLNPFFYKRLIQEGCDLWLFPSQDTWTYLLRLNSLGVVHDLMHRYEKKFSEVAAPFEYRRRERHYRAMCEYSKGILVDSNYGKRQVLESYDAKPDFIHVLPYVPPEYINIKNAPIDFDSRYNLPRKFLFYPAQFWEHKNHHNLLAALAHLKRELRDIHVVLVGSKKNAYKKTLGYINSMNLSDHVIILGYVPNEDMAEFYRRARALVFPSFFGPTNIPPLEACAAGCPLAVSNIYGMPEQLGDAALFFNPHSVEEIHLAMKRLWIDDALCRQLSMNGKKWAKAWNQNSFNRQFQVIIEEVLKNPNT | not soluble
13 | MGSDKIHHHHHHMRVTADEGLYGEEATQGTEFRFHCETLFSRSSLHRFEIGLHRHSAFLQILYIFGGEGDALLEGRIEPIRPPVAIIVPPGFEHGFRFSRDIGGVIVTMLPGALPASVQALLLRNFQQPVLLRLRDFAEKDGLRSGFERISAEYEAREIGRDAMIEGQLATVVTLLSRAARPLLETSGEGLAEQRFERLLSLIARHIREPQKAGFYAGKLGLSETHLNRLVRSVSGLSLQRLIAKRQIEIAQQELIFTVSSVQMIAEGLGFADPAYFNRFFKRETGMTPRAWRLAEQRKMGDTGARLTPPQTSILASSR | not soluble
14 | MGSDKIHHHHHHMRVYIGCGGYTDEDWTAPGLIYEGVKKDAFLETYAHHFDAVELNSSFYAIPGLKAFEGMVRKSGGWVRFAVKLNKVFTHVRAPTDTDFDRMLQSPEPLREAGMMGPYLAQFPYSFHRTAANRKYLALLTERFAGHELAVELRHASWDKPEVREGMGEFGIIWVSPDYPPVGGMPEPQVHVTGDVGYLRLHGRNRETWWEGQSAGERHDYLYNRAEMDEWAEKIAAVAGDLSELYVFFQNTTGGHALKNIPMLREALNARGVPVQTPEAHDGGRLL | not soluble
15 | MGSDKIHHHHHHMSAHEMNHATPRLPAPLFVTGTDTGVGKTVVSLLLMRALFRRGMVPFYAKPMQTGCRDPYDTDSDAAFVYRHVPELAERDPAEAVGWCFRAPKAPLHAARDERNGVETEDLMRRLAILRATHACLVLEGAGGLMVPFTADALCVDCIRAADARPVLVARDGLGTVNHTLLSVEAMTRRGVTPAGIVFVASGKRPTPSDLVHDNMEAVAMLSGISVSGIVPPILDFHAPPEAALTVADAVIDAALGL | not soluble
16 | MGSDKIHHHHHHMSAIERITKAAHLIDMNDIIREGNPTLRTVAEEVTFPLSDQEIILGEKMMQFLKHSQDPVMAEKMGLRGGVGLAAPQLDISKRIIAVLVPNIVEEGETPQEAYDLEAIMYNPKIVSHSVQDAALGEGEGCLSVDRNVPGYVVRHARVTVDYFDKDGEKHRIKLKGYNSIVVQHEIDHINGIMFYDRINEKDPFAVKDGLLILE | soluble
17 | MGSDKIHHHHHHMSCSTAVKENTTQPDIMETNKKNLGNLLALYPKPMTVVGAEVEGKVNWLVVGHTGVIGHDRILVSMSKSHYTNQGIKKSKRLSVNLVSREMLPKADYVGSVSGATVDKSEVFAYHIGENDTPVIDASPLTMECEVVDIYETDGFDNFICAIVNTYAASDVLDSDGKLDYTKLKPVLFEFPTYSYLATGEIIGKCLNPDKPGMCVKEPMTTDGIVRLSKIEVYPQYLDEYMNYATEVGEISLRTEPGVLTMYAVGEKENPCKVTILETYASREAYEQHIASEHFQKYKQGTLHMVKSLVLSDQTPLNPANKLNNFMQ | not soluble
18 | MGSDKIHHHHHHMSDKKYNVDEGEIAKFSRIADKWWDKSGEFKTLHDINPLRLDYIDGHADLCGKRVLDVGCGGGILAESMARRGAAFVKGIDMAEQSLETARLHAALNNVADIEYECIRVEDLAEAEPHSFDVVTCMEMMEHVPDPAAIVRACAKLVKPDGMVFFSTINKNPKSYLHLIVAAEYLLKFVPKGTHDWKKFIVPAELARMCRQAGLDVADTKGMTYHVLSQTYALCDSTDVNYMFACRPAF | not soluble
19 | MGSDKIHHHHHHMSDPTWDGSPQYRNELLRFMPADDLALLAPHMQRCALPVRMMLVTPNIPIEAVYFIEQGIGSVVASTASGHDAEIGFIGFEGMTGSALVMGDDRAAHACFVQLEGEAIRIDAAPFNAALAASPTLRLFLLHFVNTLHTQTGCTALVNARLKLEERLARWLLMCDDRVPGESLAMTHEFLSIMLGVRRPGVTVALQLLEGRALIRSRRGEIVIRDRAGLLELANGGYGQAEAEYARLIGEIMPG | not soluble
20 | MGSDKIHHHHHHMSDSEKSNSRLFDLDLLRAIVTVADCGSFTTAAARLHSTQSTVSQKVRRLEEMAGHRLLERGNRDVLPTDAGDTLLGYARRLLALNDELAEALSGATVALTVRIGVPDDFAAGRTTERLAAFNRRYPQVKLEVTSGMSRDLSASYDRGELDLVLLKQRRASREALACWPEKTCWVDSARNPCIDLDPLPIVTFPPRGVYRDEMIAALEAVGRRWHISFTSSSLSGLQSAIADGMGIGLLPLRAVSAGHAVLPKNVGLPAVDVFEVALLHRPAADPMVKALARVLSRVLAEDTRSRPAFEK | not soluble
